According to the DeepSol protein solubility set:

assay: soluble on expression in E. coli; label from the status in PepcDB or PDB records

Q: With “MSLNTQDFLAGYTKRFVDNKEEDMSLDEYLELCKTDPTAYANPAERLLMAIGEPELIDTRHDPVLSRIFSNKIIHHYEVFKDFYGMEEPIEQIVGFLKHAAQGLEETKQVLYLLGPVGGGKSSIAEKLKDLMERIPFYAIKGSPVFESPLSLFNPLEDGELLRERFGIPTRYLRYLMSPWAVKRLQEYNGDISKFRVIKVKPSRLKQIAIAKTEPGDENNQDISSLVGKVDIRKLEEFSQDDPDAYSYSGGLCRANRGLLEFVEMFKAPIKVLHPLLTATQEGNYNATEGLSAIPFEGIILAHSNESEWQSFRNNEGHHHHHH” as the sequence, how does the “soluble on expression in E. coli” value read?
A: not soluble

Q: With “MSLTTRIGFLLFPGFPMACLTSIIEPLRAANEISMSDSFAWRLVSELPRKVVSSAGITFEPDASLETVSALDYLVLLSAPVARFENPRTASLLRRIERHGTVLGAISGGVFPLVRSGVVRDERLSVHWCYEAAFAAEFPEIQRSNEVIEISPRLLTASGAAAAFDLALSLIEAALGANVANEVACWFQHPIMRKAGVKQALPIHQAADAEGEMSPLVARAIEIFAENLTTPASIAAIAERLHITPRHLERCFKQATGQNPTGYFRHLRMQAARQIVMYTNDSIAEVATAVGYANAKPLVRHYRDTFGLTPQQDRKRINLYRVEGNEGHHHHHH” as the sequence, how does the “soluble on expression in E. coli” value read?
A: not soluble

Q: Which “soluble on expression in E. coli” value does the source give for “MRGSGPRDRGSNPRPATTPTALSYISLPTSDSTRWGGLAVARARGVVLGYRRGTNTQYPQHALVKLLLDDPRKAGLYVSGIAFYRDRYGNVYKGRVLRLHGRRGGVVVVKFNPPLPGQATGGVVEVVKAGGDGLEHHHHHH” here?
A: not soluble

Q: With “MSEDILPITISLAGEKDTIRLGEDLALALKPGDCLTLIGDLGAGKSTLARAFIRAMADEPDLEVPSPTFTIIQTYTTRIPVAHLDLYRLSDVSELDELGIDEMLEDGICLIEWPDIAAEVLPPAQTITLQLTHSGEGRVAVIEAPAQQKARLDRVFAIREFLAKNGRGDATRRFLSGDASTRAYETISTDGPDLILMDWRRPMRGAIVADGKTYAEIVHLAQDARSFVAIGDYLRNSGFRAPEILAADIDQGILLLEDLGREGVLAADGTPIEERYLQSVACLATLHQTPRPALLPMRDGSTYDIPSFDRQAMKIEVSLLVEWYLPHKRGKALTDGEKQDYYAIWDGLIDALAGCETGLLLRDFHSPNILWQAQNSGIGQVGLIDFQDAMIGPTAYDLASIVQDARVTIPPELQTRLMSHYLNSRKATPAFDEAAFLKAFAIMSAQRNCKLAGIWVRLLERDKKPGYMKHMPRTFRYLADALSHPELAPLREWCVRMGMDFNDLEHHHHHH” as the sequence, how does the “soluble on expression in E. coli” value read?
A: soluble

Q: For “MVKCLSAHNKAPHVSVITPSYNSRRFIGETILSVQNQSYENWEMIIVDDCSTDQSAAKIKEIIEGDSRIRLLSLKENVGAAKARNLAIREARGRYIAFLDSDDIWLPHKLKTQLLFMEEMNIAFSYASYSLIDENGNELNREVSVPKSVDYHYLVGNTIIGCLTVMIDREKIPYVEMPSVQPEDTALWLNLLHEGHEAKGIQQVLAKYRIVANSVSSNKVRAAFRYWKLLRDQKSLNAVQSFYYFSKYAYHAYKKNKINVVGKTQLLEHHHHHH”, which “soluble on expression in E. coli” value is on record?
A: not soluble

Q: With “MEKVNPKIQRLMSTDKQHFLTKHEFHTKETAERKDLLKFFIETRLKTDGGFLTNYLPDAERKDVATGHELLSESSGLYLRNLAFDTQGRFDNFYKQTKDTFYDGVQFSYRIDEQGNKYNVNASIDDLRIIRSLIEAGGHFKTDQYDQEIKKLGKSFMKTSMKDNILIDFYDSKSKQQSSETSLFYIDLITLGYLYKEFGISADYLQYHYQLIDDGYISDDLPLYQTKFNHQTNKYENNGTLNIIESLLTIVHLSEVGMAKQTSIDFVRKQVQQGTLFNSYDLNGSPVDKNQSAASYAIAALIGVAENDKELYRAAITVLNNFQIMDSSSPIYGGFGDKVTKQVYSYNNLMALLAYDF” as the sequence, how does the “soluble on expression in E. coli” value read?
A: not soluble

Q: With “KLKARSIKIQRRMDAILLRMPIFGDIVRKGTIARWGRTTATLIAAGVPLVDVLDSTAGAAGNLIYEEATREIRTRVIQGLSMTSGMRATELFPNMMLQMSSIGEESGSLDDMLNKAAEFYEDEVDNAVGRLSAMMEP” as the sequence, how does the “soluble on expression in E. coli” value read?
A: not soluble

Q: Which “soluble on expression in E. coli” value does the source give for “MGKSIPVKTGLRGASAAVAGFIKSSKPIRPISSMDSSDKDSSSTTTTSETTRRFVPLSSVVSDCAKRWFKDTLEEAKAGNITMQVLLGQMYYSGYGVPKDARKVSSLFPPFQSLLFQVLGYNASDSDSESD” here?
A: not soluble

Q: For “MLTCTVDTQFGRLTLREEAGALVSVSWGSAAREDASELLQRASLQVSEYDQGARQQFDLPVRIRGSAFQRAVCDAICAIPFGDTCTYGDIARALGVPAQAVGQACGANPIPIIIPCHRVMGAKGLTGFSGVGGVETKVALLRHEGAAGLLILEHHHHHH”, which “soluble on expression in E. coli” value is on record?
A: not soluble

Q: With “MGSDKIHHHHHHVILKAKVYHKVFAFKDLKEVLAKANEEKSGDVLAGIGATSASERVAAKLVLSNLTLEDLYNHPVLPYEEDEVTRVIYDGLNLRIYQEMKGWTVGQLREYILDHGTTGSHLNHISRGLTSEMIAAVAKLMSNMDLVYGSKKMRHQAHCNTTIGIPGTLAFRCQPNHPTDSVEGVMASLKEGLSYGSGDAVIGINPVEDNVDTLSRLLETVKEFMQQWEIPTQNCVLAHITTQMKAITKGVPIDLVFQSIAGTQKANEAFGISKELIDEAFALIQRNGTATGPNLMYFETGQGSEISLAAHHGVDMMTLESRTYGFGRHYRPFLLNNVSGFIGPETIYSGREVIRADLEDLFMGKLHGLPMGIAPCYTNHMKADQNDQEIATLLCAMAGANYFMGLPGGDDVMLSYQDTSYHDDAATREILGLRPLPEFEKWLEKMGIMENGQLTERAGDPSVFDK” as the sequence, how does the “soluble on expression in E. coli” value read?
A: not soluble

Q: For “MSLTVRQLASLTRGAVRTLATDGAVAVLPIGAVEQHGDHLPLGTDFLLVEAVCDRAMQQLEDDRTTWVRVPTMTFGHSPHHLFAAAVSLQAGTLTDVLADVLDSLAQTGFRRIVIVNGHGGNDELVRLAVKAHSLHAEGTAAACSYWTLTAQTTAEAAATERPDRTPGHAGWFETSLMLAVHPELVADDRPFTPSDPPPLFNRSPAPGLTVERHGEWPRVGGTTDDAREASAETGRLLLGRRVAGLVAALQSLDRATATPPAASVPSTDRERGPQAEGHHHHHH”, which “soluble on expression in E. coli” value is on record?
A: not soluble

Q: For “MGSDKIHHHHHHMRYRRFGRTELAMPVFSCGGMRYQQSWKDVDWPEISVESQANLEATLARSLELGINHIETARYYGSSERQLGKALAAYPRSEIILQTKVPPSEDPAEFLETFDRSMSLLQTDYVDLLSIHGVNNAELLDWALRKGGSLDVAERLQAEGRVRHIGFSTHAPLPVILEAIASDRLSYINLHWYYIFQTNQAALEAAQKHDMGVFIISPSDKGGHLYSPPQKLVDLCEPLHPMVFNDLFCLSQPQIHTLSIGAARPSDFDRHLETLPLLDQADQVLPPILERLEAAATAALGQDWLDTWMVGLPTPDTTPGEINIPTIVWLYNLVQAFDMVKYAKARYNLLGNGGHWFPGQRAGQFDPVALSAALDQSPHRDRILQILKEMDAWLGGESVVRLSQSS”, which “soluble on expression in E. coli” value is on record?
A: not soluble

Q: For “MRSALSLKPSNGNAAKSQAVNNKNVIKNAPLGGKLTRQIGTSNLLQQALPSKKIDESPIIKIDAKDSFKVFEDQEPEKENSSENVDATEKDSNVIPAEDNNMIHELERKMEEKSRAEKLKFKFMQTRDNSDITSRFSEPPSEFSVLCDDDDCDKVSVASSTFTTSVRATFSSFHFDENQRKKEFGKEEAVKKIQKKAAKEARDDSMFSSEEFFPDIIKYMLHRQTKNRASHECFDIQSQVNEEMRTILIDWFSDVVKEYNFQKETFHLAVSLVDRALSMFNIDKMRFQLVGTTSMMIAVKYEEIFPPEIEDFALITDNTYRVPDILLMERFLLGKFDFVVAMPTSSWFGTCFAKRMNFTKKMRNTVHYLLELSLIDVHFLRYRPSDIAAAACCFANLQADVESWPQKMVDDTGISTEDFVDVLRDLHRMYLNASTADFKSIFYNYSETAQMEVALLPAPTDKLRSMFPSIFVTAPKSSNDSSSPQ”, which “soluble on expression in E. coli” value is on record?
A: not soluble

Q: Which “soluble on expression in E. coli” value does the source give for “MINDDILAHARQCAPAESCGYVVRTAQGERYFPCENLSAEPTMYFRISPEDYLNARNRGDIVALVHSHPDGKPCLSSADRTLQIQSGLDWWLVCDNRIHKFRCVPHLTGRQFEHGVTDCYTLFRDAYHLAGIDMPDFDREDDWWSQGKSLYLDHLEAAGFYRVNPEDAQPGDVLICCFGSPTPNHAAIYCGNGELLHHIPEQLSKREGYNDKWQRRTHSIWRHRQWCESAFTGIYNDLESASASA” here?
A: not soluble

Q: For “MGSDKIHHHHHHMADETISLDYYAPRFRVEIDGETIPQDGIVSVEVDETLDAPAMVSLAFNETLDPRSQTFAWLDNPKLVPGAEVKVFLGYTGRAVPAPKPLFEGRLHTLTPAFQNSGVPSLMVQGYDHSHGLQKVKSHFSRTNARASDAASEIARLNGLDASGVEATATVHPSIRQGEDEVDLEFLRRLARDLGFEVFVRGKALMFRTPADEETELLTFQWGRNLVSFTPRLSTSAQVSEVRVRGWNPATKERIEGKATVADLKGLAGGVSGAEQAGSGGEPVVRSIEDRPVFSREEADALARAELNRLNDGFITGTGETIGMPELRPGITVAIQGIGTRFSGRYYVKGARHSLGDSGYRTTFEVRRNALGSL”, which “soluble on expression in E. coli” value is on record?
A: not soluble

Q: With “MGSDKIHHHHHHMGILSDKDIAYLKDLFGKELKRKVKIVFFKTEDKTRCQYCEITEQVLEELVSVDPKLELEIHDFDSDKEAVEKYQVEMVPATILLPEDGKDYGIRFYGVPSGHEFGTLIQDIITVSEGKPQLSEESIQKLQSLEEPIRISVFVTPTCPYCPRAVLMAHNMAMASDKIIGEMIEANEYWELSEKFGVSSVPHIVVNRDPSKFFVGAYPEKEFINEVLRLAKG” as the sequence, how does the “soluble on expression in E. coli” value read?
A: not soluble

Q: With “AEAQNDPLLPGYSFNAHLVAGLTPIEANGYLDFFIDRPLGMKGYILNLTIRGQGVVKNQGREFVCRPGDILLFPPGEIHHYGRHPEAREWYHQWVYFRPRAYWHEWLNWPSIFANTGFFRPDEAHQPHFSDLFGQIINAGQGEGRYSELLAINLLEQLLLRRMEAINESLHPPMDNR” as the sequence, how does the “soluble on expression in E. coli” value read?
A: soluble

Q: For “MDPAKNEYGMGSTLTTLAYEKFAKAAKYNTQQNDLAAPTAQLDIAVSLSGFKEGDSNYPINPILKLTNNSTQTIPGGTRIEFLVPTSTSDTITDQSGMGLKVVESGGNQNSDGIAGEKDFHKAAFTLPTWKAWAPGSDVEVAMTYYLPAAGVPSGIRIISGTQTAGLKAEFPTLPEAVLEHHHHHH”, which “soluble on expression in E. coli” value is on record?
A: soluble

Q: With “MGSDKIHHHHHHMIQRRETFLNNVAEKLGRGRRTAGVKRPDYTVKPQFEVMKEHSSDQLVNVLSEQCTKIHTDVKQTKVDRLEQAIDNVLEEYSARNVITWNDPRFDQFGLTSFLQREQVEVWDHTEGERLVEKAEQADIGITFADYTLAESGTVVLLSGNGKGRSVSLLPTYYIAIIPKSTLVPRMSQVTRELHLKAASGERLPSCINFISGPSNSADIEMNLVVGVHGPIRACYIVVEDR” as the sequence, how does the “soluble on expression in E. coli” value read?
A: not soluble

Q: Which “soluble on expression in E. coli” value does the source give for “MPDDEKIKLRYSPEESARLIKEEARRLGFSACGFAEAQALPPSVVGTYEKFLSEGRHGEMDYLERNRELRYSPAELLPGTRTVISVALNYYPKIKQPASAPQIAYYAYGKDYHKVVKRLLDKLLDYIRREVCPSVSGRSFSDSAPIAERYWACRAGIGWVGRSGMLILPRGGTFFFLGELLVDIDLPPDAPMPSRCGACRNCIESCPTGAISEEGMDSRLCVSYLTIEHEGEIPPELVGKLGNRFYGCDSCQLCCPWNRYAHPSEVEAFVPREALFTFDRDDLVSLDEEKYLHFFAGSPMKRAGLDGLRRNARALEQGDKKEDEQPTDEDG” here?
A: not soluble

Q: For “MGSDKIHHHHHHAYFFNVAFVPGQKSVLNKYSSKKKKDPFAQNKKWYADAKKEQWYIKSASSNYCLDANYIPKKNSHKTAVLLHGFMNNKDTMAPYAAMFHQLGYNVLIPDARAHGKSQGKYIGYGWPEKYDVQKWVKKDIAEKGKKQKIVIFGVSMGGATTMMTSGLKMPKQVKAYIEDCGYTDVKSEFLYEAKDIYKMPKLVASSAVAILSGVSKANLGFYLGDASAVNQLKKNKLPMMFIHGSKDNFVPTKMVYQNYKATNGPKELWIAEKAAHARSFETYPREYKARVSKFLNKYV”, which “soluble on expression in E. coli” value is on record?
A: not soluble
